Test results taken from paper PMC3760141 (Cell reports, 2013).
Changes are numbered by the printed parent chain. Names and notes keep the numbering of the source.

B1: p202 HIN2 (K244-K445) (domain or fragment, mouse, UniProt Q9R002 244-445, looked up)
chain: KLLKESFEGDGYHKGPKQVVALKATKLFTYDSIKSKKMFHATVATDTEFFRVMVFEENLEKKFIPGNTIALSDYFGMYGSLAIHEYSSVSEVKSQNKEDSSSSDERLIEHLKICDLHLQTKERLVDGEFKVYRKSTGNNCICYGIWDDTGAMKVVVSGQLTSVNCEIGNTIRLVCFELTSNADEWFLRSTRYSYMEVIMPEK
B2: p202 HIN2 R376E (domain or fragment, mouse, UniProt Q9R002 244-445, looked up)
chain: B1 chain with R133E
B3: mouse AIM2 HIN (domain or fragment, UniProt Q91VJ1 144-341, looked up)
chain: MVAEQEAIREDLQKDPLVVTVLKAINPFECETQEGRQEIFHATVATETDFFFVKVLNAQFKDKFIPKRTIKISNYLWHSNFMEVTSSSVVVDVESNHEVPNNVVKRARETPRISKLKIQPCGTIVNGLFKVQKITEEKDRVLYGIHDKTGTMEVLVLGNPSKTKCEEGDKIRLTFFEVSKNGVKIQLKSGPCSFFKVI
B4: full-length p202 (purified) (natural protein, mouse, UniProt Q9R002 1-445, looked up)
chain: MSNRNLRSSTNSEFSEGQHQTPSSDSSGHGEDQPQASPGPNKKSHTPKKNISKGAVLHEKPMTVMVLTATEPFNYKEGKENMFHATVATESQYYRVKVFNMDLKEKFTENKFITISKYFNSSGILEINETATVSEAAPNQIIEVPKNIIRSAKETLKISKIKELDSGTLIYGVFAVEKKKVNDKSITFKIKDNEDNIKVVWDKKQHNINYEKGDKLQLFSFHLRKGNGKPILHSGNHSFIKGEKLLKESFEGDGYHKGPKQVVALKATKLFTYDSIKSKKMFHATVATDTEFFRVMVFEENLEKKFIPGNTIALSDYFGMYGSLAIHEYSSVSEVKSQNKEDSSSSDERLIEHLKICDLHLQTKERLVDGEFKVYRKSTGNNCICYGIWDDTGAMKVVVSGQLTSVNCEIGNTIRLVCFELTSNADEWFLRSTRYSYMEVIMPEK
B5: p202, endogenous in bone marrow-derived macrophages (natural protein, UniProt Q9R002 1-445, looked up)
chain: B4 chain

Key:
mouse AIM2 HIN = target: B3; test: ITC
SEC-MALS = target: the molecule itself; test: SEC-MALS
p202 HIN2 (K244-K445) = target: B1; test: ITC
cross-linking = target: the molecule itself; test: cross-linking

Row | Binder | stoichiometry N (SEC-MALS) | further results
1 | B1 | 4 | stoichiometry N (mouse AIM2 HIN): 2 p202 HIN2 per AIM2 HIN
2 | B2 | 2 | 
3 | B3 |  | Kd (p202 HIN2 (K244-K445)): 12.6 µM
4 | B4 | 4 | 
5 | B5 |  | stoichiometry N (cross-linking): 4
